Laboratory results reported in US20230038638A1, “COMPLEMENT FACTOR I-RELATED COMPOSITIONS AND METHODS” (published 2023).
Changes are numbered by the printed parent chain.

What was measured:
[1] = target: soluble human C3b (human) (UniProt P01024)
human C4b (human) [2] = target: T1, human C4b (human) (UniProt P0C0L4)
T1 sequence: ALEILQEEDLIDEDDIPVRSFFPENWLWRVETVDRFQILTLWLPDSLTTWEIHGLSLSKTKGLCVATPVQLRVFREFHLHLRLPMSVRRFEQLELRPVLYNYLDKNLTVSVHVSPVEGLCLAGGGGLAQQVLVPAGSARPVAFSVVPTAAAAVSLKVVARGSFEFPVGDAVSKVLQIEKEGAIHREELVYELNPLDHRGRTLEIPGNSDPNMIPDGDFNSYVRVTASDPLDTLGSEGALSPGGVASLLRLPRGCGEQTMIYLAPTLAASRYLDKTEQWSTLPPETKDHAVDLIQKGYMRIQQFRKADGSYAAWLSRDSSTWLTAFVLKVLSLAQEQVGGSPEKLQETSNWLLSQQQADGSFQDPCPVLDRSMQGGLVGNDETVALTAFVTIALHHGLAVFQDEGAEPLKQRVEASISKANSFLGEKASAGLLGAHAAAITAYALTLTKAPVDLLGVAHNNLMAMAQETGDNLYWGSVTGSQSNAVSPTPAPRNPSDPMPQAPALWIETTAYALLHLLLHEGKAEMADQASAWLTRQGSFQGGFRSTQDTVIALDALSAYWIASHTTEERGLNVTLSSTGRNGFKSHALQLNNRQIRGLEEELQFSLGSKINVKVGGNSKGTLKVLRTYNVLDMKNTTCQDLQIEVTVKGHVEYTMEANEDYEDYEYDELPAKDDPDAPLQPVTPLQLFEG

[3] = target: soluble human C3b (human) (UniProt P01024); remark: listed apart in the source
human C4b (human) [4] = target: T1, human C4b (human); remark: listed apart in the source
human C4b (human) [5] = target: T2, human C4b (human) (UniProt P0C0L5)
T2 sequence: T1 sequence with A151T, D317G, P364L, C365S, L368I, D369H, N420S, V451A, L454R, S530A

| Substance | iC3b EC50 [1] [nM] | C4c EC50 (nM) (human C4b (human) [2]) | also measured |
| --- | --- | --- | --- |
| CFI-HSA variant D549P (enzyme) | 41.7 | > 1000 | – |
| CFI-HSA variant N531G; E457G; E461Q; R462K (enzyme) | 5.9 | – | C4c EC50 (human C4b (human) [2]): 18.4 nM |
| CFI-HSA variant Y408L; WT; GGSSGG (SEQ ID NO: 6); CR1(ccp15-17) (enzyme) | 37.5 | – | C4c EC50 (human C4b (human) [2]): 95.9 nM |
| CFI-HSA variant R365A (enzyme) | 64.3 | > 1000 | – |
| CFI-HSA variant R557V (enzyme) | 165 | 138 | – |
| CFI-HSA variant R557W (enzyme) | 198 | 165 | – |
| CFI-HSA variant N531G; E457G; R462K (enzyme) | 7.7 | – | C4c EC50 (human C4b (human) [2]): 17.3 nM |
| CFI-HSA variant T377G; N531G (enzyme) | 6.6 | 19.2 | – |
| CFI-HSA variant E457G; E461Q; R557K (enzyme) | 10.8 | 52.6 | – |
| CFI-HSA variant E457G; N531G; E461Q; R462K; F464Y; E530Y (enzyme) | 3.5 | 7.8 | – |
| CFI-HSA variant T377G; E461Q (enzyme) | 6.5 | 28.4 | – |
| CFI-HSA variant H370G (enzyme) | 80.8 | > 1000 | – |
| CFI-HSA variant T377G; E457G; E461Q; N531G (enzyme) | 4.3 | 10.9 | – |
| CFI-HSA variant R557H (enzyme) | 198 | 98.8 | – |
| CFI-HSA variant N531G; P535A; R557K (enzyme) | 17 | 52.2 | – |
| CFI-HSA variant Y408L; E457G; E461Q; R462K; N531G; ΔC-term (Δ558-PFISQYNV (SEQ ID NO: 14)-565) (enzyme) | 131 | 111 | – |
| CFI-HSA variant N531G; E457G; E461Q; R557K (enzyme) | 8.3 | 23.2 | – |
| CFI-HSA variant N531G; E457G; E461Q; ΔC-term (Δ558-PFISQYNV (SEQ ID NO: 14)-565) (enzyme) | 97.1 | 51.1 | – |
| CFI-HSA variant D459G (enzyme) | 24.6 | 348 | – |
| CFI-HSA variant R557Q (enzyme) | 286 | 120 | – |
| CFI-HSA variant N531G; E457G; E461Q; R557A (enzyme) | 19.1 | 25 | – |
| CFI-HSA variant E457G; D425R; E530Y (enzyme) | 3.6 | 234 | – |
| CFI-HSA variant D425T (enzyme) | 11.5 | – | C4c EC50 (human C4b (human) [2]): 227 nM |
| CFI-HSA variant L307A (enzyme) | 17.1 | – | C4c EC50 (human C4b (human) [2]): 93.4 nM |
| CFI-HSA variant P384A (enzyme) | – | – | iC3b Screen Ref Fold (fold of reference) [3]: 0.03; iC3b Screen Ref Fold (fold vs CFI-HSA wild type) [3]: 0.03; C4b Screen Ref Fold (fold of reference) (human C4b (human) [4]): 0.29; C4b Screen Ref Fold (fold vs CFI-HSA wild type) (human C4b (human) [5]): 0.07; C4c EC50 (human C4b (human) [2]): > 1000 nM |
| CFI-HSA variant N404G (enzyme) | – | – | iC3b Screen Ref Fold (fold of reference) [3]: 0.94; iC3b Screen Ref Fold (fold vs CFI-HSA wild type) [3]: 0.68; C4b Screen Ref Fold (fold of reference) (human C4b (human) [4]): 0.53; C4b Screen Ref Fold (fold vs CFI-HSA wild type) (human C4b (human) [5]): 0.31; C4c EC50 (human C4b (human) [2]): 310 nM |
| CFI-HSA variant R557S (enzyme) | 208 | 247 | – |
| CFI-HSA variant G406K (enzyme) | – | – | iC3b Screen Ref Fold (fold of reference) [3]: 1.28; C4b Screen Ref Fold (fold of reference) (human C4b (human) [4]): 0.77; C4c EC50 (human C4b (human) [2]): 183 nM |
| CFI-HSA variant Y408L; E457G; E461Q; R462K; E530Y; N531G; P558S (enzyme) | – | 27.3 | iC3b Screen Ref Fold (fold of CFI-HSA wild type) [3]: 2.06; C4b Screen Ref Fold (fold of CFI-HSA wild type) (human C4b (human) [4]): 4.18 |

Further lines, with some results ahead:

| iC3b EC50 [1] [nM] | C4c EC50 (nM) (human C4b (human) [2]) | Substance | also measured |
| --- | --- | --- | --- |
| 21.7 | 158 | CFI-HSA variant A405G (enzyme) | – |
| > 500 | 143 | CFI-HSA variant R557G (enzyme) | – |
| > 500 | 148 | CFI-HSA variant R557D (enzyme) | – |
| 32.7 | 43.1 | CFI-HSA variant E457G; N531G; E461Q; R462K; F464Y; GGSSGG (SEQ ID NO: 6); CR1 (ccp15-17) (from UniProt P17927) (enzyme) | – |
| 164 | 82 | CFI-HSA variant R557M (enzyme) | – |
| 128 | 117 | CFI-HSA variant R557I (enzyme) | – |
| 5.9 | 20.7 | CFI-HSA variant T377G; E457G (enzyme) | – |
| 51.6 | 54.5 | CFI-HSA variant Y408L; N531G; R557A (enzyme) | – |
| 24.2 | 27.4 | CFI-HSA variant Y408L; E457G; E461Q; R462K; N531G; R557A (enzyme) | – |
| 20.9 | – | CFI-HSA variant K504D; Y408L; N531G (enzyme) | C4c EC50 (human C4b (human) [2]): 242 nM |
| 360 | 154 | CFI-HSA variant R557N (enzyme) | – |
| 110 | 173 | CFI-HSA variant Y408L; N531G; ΔC-term (Δ558-PFISQYNV (SEQ ID NO: 14)-565) (enzyme) | – |
| 8.9 | 126 | CFI-HSA variant E401G (enzyme) | – |
| 168 | 145 | CFI-HSA variant R557F (enzyme) | – |
| > 500 | 151 | CFI-HSA variant R557E (enzyme) | – |
| 13 | – | CFI-HSA variant D425I (enzyme) | C4c EC50 (human C4b (human) [2]): 112 nM |
| 5.4 | – | CFI-HSA variant N531G; E461Q (enzyme) | C4c EC50 (human C4b (human) [2]): 24.2 nM |
| 106 | – | CFI-HSA variant R462K; F464Y (enzyme) | C4c EC50 (human C4b (human) [2]): > 1000 nM |
| 21.6 | – | CFI-HSA variant E457G; WT; GGSSGG (SEQ ID NO: 6); CR1(ccp15-17) (enzyme) | C4c EC50 (human C4b (human) [2]): 42.3 nM |
| 33 | 50.3 | CFI-HSA variant E457G; E461Q; N531G; GGSSGG (SEQ ID NO: 6); CR1 (ccp15-17) (from UniProt P17927) (enzyme) | – |
| 32.2 | > 1000 | CFI-HSA variant D549A (enzyme) | – |
| 19.4 | – | CFI-HSA variant K504E; Y408L; N531G (enzyme) | C4c EC50 (human C4b (human) [2]): 120 nM |
| 15.7 | – | CFI-HSA variant K534H (enzyme) | C4c EC50 (human C4b (human) [2]): 104 nM |
| 5.3 | – | CFI-HSA variant N531G; E461Q; R462K (enzyme) | C4c EC50 (human C4b (human) [2]): 38.7 nM |
| 4.3 | 12.3 | CFI-HSA variant D425R; Y408L; N531G; E457G; E461Q; R462K; F464Y; E530Y (enzyme) | – |
| 116 | 145 | CFI-HSA variant R557Y (enzyme) | – |
| > 500 | – | CFI-HSA variant F464P (enzyme) | C4c EC50 (human C4b (human) [2]): > 1000 nM |
| – | 51.7 | CFI-HSA variant E457G; E461Q; R462K; F464Y; K504H; N531G (enzyme) | iC3b Screen Ref Fold (fold of CFI-HSA wild type) [3]: 2; C4b Screen Ref Fold (fold of CFI-HSA wild type) (human C4b (human) [4]): 4.01 |
